Measurements taken from paper PMC9482650, “Quantitative fragmentomics allow affinity mapping of interactomes” (Nature Communications, 2022).

T1: TIAM2, Q8IVF5
T1 sequence (Q8IVF5 885-986, limits assumed, looked up): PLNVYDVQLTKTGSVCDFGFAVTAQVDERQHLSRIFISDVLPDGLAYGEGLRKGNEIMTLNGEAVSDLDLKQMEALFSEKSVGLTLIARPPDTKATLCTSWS

T2: NHERF3_4, Q5T2W1
T2 sequence (Q5T2W1 373-468, limits assumed, looked up): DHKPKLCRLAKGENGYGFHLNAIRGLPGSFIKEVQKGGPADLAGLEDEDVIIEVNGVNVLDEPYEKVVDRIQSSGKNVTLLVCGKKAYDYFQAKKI

T3: PDZRN3_1, Q9UPQ7
T3 sequence (Q9UPQ7 244-349, limits assumed, looked up): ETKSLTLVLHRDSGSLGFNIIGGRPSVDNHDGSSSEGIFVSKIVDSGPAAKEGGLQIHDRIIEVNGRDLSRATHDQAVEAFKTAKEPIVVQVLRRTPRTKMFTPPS

T4: LIN7C, Q9NUP9
T4 sequence (Q9NUP9 88-185, limits assumed, looked up): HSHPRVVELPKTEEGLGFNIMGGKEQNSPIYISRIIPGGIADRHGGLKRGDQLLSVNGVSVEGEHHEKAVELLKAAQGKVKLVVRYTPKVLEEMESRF

T5: PDZD2_2, O15018
T5 sequence (O15018 329-429, limits assumed, looked up): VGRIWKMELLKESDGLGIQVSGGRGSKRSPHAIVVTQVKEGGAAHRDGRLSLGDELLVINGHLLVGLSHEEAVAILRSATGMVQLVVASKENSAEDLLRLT

T6: SNTB1, Q13884
T6 sequence (Q13884 107-205, limits assumed, looked up): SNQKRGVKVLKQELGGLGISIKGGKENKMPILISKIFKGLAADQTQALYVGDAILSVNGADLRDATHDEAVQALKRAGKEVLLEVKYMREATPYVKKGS

T7: APBA3_1, O96018
T7 sequence (O96018 389-490, limits assumed, looked up): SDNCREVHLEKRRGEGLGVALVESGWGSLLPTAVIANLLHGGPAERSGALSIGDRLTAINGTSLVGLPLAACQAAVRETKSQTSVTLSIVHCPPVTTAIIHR

T8: SNTG2, Q9NY99
T8 sequence (Q9NY99 68-166, limits assumed, looked up): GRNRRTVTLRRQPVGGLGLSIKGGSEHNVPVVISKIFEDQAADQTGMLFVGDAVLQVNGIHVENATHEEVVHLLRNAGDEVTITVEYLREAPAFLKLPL

T9: LNX2_3, Q8N448
T9 sequence (Q8N448 463-564, limits assumed, looked up): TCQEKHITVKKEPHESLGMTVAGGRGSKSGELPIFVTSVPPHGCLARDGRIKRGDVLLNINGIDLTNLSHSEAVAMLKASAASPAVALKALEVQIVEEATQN

T10: ARHGEF11, O15085
T10 sequence (O15085 42-136, limits assumed, looked up): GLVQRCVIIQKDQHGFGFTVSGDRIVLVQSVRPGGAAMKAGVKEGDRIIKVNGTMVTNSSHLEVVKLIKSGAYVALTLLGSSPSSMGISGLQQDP

T11: HTRA4, P83105
T11 sequence (P83105 378-476, limits assumed, looked up): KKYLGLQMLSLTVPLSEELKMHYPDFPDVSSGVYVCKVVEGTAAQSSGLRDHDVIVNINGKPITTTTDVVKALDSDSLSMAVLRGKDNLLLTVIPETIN

T12: GRIP1_4, Q9Y3R0
T12 sequence (Q9Y3R0 467-571, limits assumed, looked up): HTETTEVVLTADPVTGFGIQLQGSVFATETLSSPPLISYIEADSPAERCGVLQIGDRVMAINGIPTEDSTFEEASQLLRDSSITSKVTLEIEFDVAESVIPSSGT

B1: HDAC7, Q8WUI4 (peptide)
chain: LVEEEEPMNL
B2: FAM167B, Q9BTA0 (peptide)
chain: NISARRFTLC

Tests used:
Assay in all cases: holdup assay
Parameters in all cases: key: below the threshold = too weak to quantify, mostly under pKd 3.1 to 4
Details in all cases: plain residues with an end cap or a label only (N-terminal biotin on a linker: ado-ado)
[1] = target: T1, TIAM2, Q8IVF5
[2] = target: T2, NHERF3_4, Q5T2W1
[3] = target: AHNAK1, Q09666
AHNAK1, Q09666, sequence (Q09666 4-100): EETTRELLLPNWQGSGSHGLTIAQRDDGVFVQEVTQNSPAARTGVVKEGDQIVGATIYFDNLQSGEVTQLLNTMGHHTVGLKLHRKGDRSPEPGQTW

[4] = target: Inadl_3, Q8NI35
Inadl_3, Q8NI35, sequence (Q8NI35 359-469): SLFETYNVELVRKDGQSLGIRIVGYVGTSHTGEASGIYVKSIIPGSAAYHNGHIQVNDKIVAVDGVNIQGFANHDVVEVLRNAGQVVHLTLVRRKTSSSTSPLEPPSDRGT

[5] = target: T3, PDZRN3_1, Q9UPQ7
[6] = target: IL16_4, Q14005
IL16_4, Q14005, sequence (Q14005 1229-1329): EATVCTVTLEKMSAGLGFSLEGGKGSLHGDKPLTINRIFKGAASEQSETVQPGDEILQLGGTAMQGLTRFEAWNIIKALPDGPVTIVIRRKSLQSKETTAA

[7] = target: T4, LIN7C, Q9NUP9
[8] = target: SNX27, Q96L92
[9] = target: LNX1_3, Q8TBB1
LNX1_3, Q8TBB1, sequence (Q8TBB1 500-596): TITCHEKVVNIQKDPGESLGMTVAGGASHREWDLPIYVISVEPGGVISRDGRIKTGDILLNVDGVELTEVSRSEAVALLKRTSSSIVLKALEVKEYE

[10] = target: LAP2, Q96RT1
LAP2, Q96RT1, sequence (Q96RT1 other isoform, or with tags, fused parts or gaps): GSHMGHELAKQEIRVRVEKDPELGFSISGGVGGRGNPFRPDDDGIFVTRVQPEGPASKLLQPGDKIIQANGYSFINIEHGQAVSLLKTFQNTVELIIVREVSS

[11] = target: FRMPD2_2, Q68DX3
FRMPD2_2, Q68DX3, sequence (Q68DX3 944-1038): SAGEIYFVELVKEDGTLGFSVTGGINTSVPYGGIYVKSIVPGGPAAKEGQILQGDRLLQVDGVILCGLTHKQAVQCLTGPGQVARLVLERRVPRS

[12] = target: MAGI2_4, Q86UL8
MAGI2_4, Q86UL8, sequence (Q86UL8 772-865): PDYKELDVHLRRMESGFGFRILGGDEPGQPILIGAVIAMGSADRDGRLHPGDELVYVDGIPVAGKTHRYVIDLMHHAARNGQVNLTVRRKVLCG

[13] = target: Inadl_6, Q8NI35
Inadl_6, Q8NI35, sequence (Q8NI35 1058-1167): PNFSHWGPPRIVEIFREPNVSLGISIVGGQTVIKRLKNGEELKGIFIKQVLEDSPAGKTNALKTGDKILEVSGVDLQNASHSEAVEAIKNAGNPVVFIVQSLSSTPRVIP

[14] = target: DLG1_3, Q12959
DLG1_3, Q12959, sequence (Q12959 457-571): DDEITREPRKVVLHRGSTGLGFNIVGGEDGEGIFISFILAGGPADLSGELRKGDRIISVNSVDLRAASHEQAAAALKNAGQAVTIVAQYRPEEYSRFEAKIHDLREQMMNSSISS

[15] = target: T5, PDZD2_2, O15018
[16] = target: T6, SNTB1, Q13884
[17] = target: SCRIB_2, Q14160
SCRIB_2, Q14160, sequence (Q14160 857-960): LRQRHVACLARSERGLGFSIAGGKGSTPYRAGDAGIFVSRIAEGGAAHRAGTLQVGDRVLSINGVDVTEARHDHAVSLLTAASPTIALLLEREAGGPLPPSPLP

[18] = target: TJP1_3, Q07157
TJP1_3, Q07157, sequence (Q07157 416-512): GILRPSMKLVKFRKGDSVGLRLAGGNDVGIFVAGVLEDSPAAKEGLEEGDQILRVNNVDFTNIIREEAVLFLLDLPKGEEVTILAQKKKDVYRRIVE

[19] = target: T7, APBA3_1, O96018
[20] = target: LNX1_2, Q8TBB1
LNX1_2, Q8TBB1, sequence (Q8TBB1 371-470): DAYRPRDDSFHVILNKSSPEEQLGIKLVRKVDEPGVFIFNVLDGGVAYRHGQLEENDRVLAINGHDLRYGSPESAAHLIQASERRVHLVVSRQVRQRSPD

[21] = target: T8, SNTG2, Q9NY99
[22] = target: T9, LNX2_3, Q8N448
[23] = target: T10, ARHGEF11, O15085
[24] = target: T11, HTRA4, P83105
[25] = target: T12, GRIP1_4, Q9Y3R0
[26] = target: DLG2_2, Q15700
DLG2_2, Q15700, sequence (Q15700 189-283): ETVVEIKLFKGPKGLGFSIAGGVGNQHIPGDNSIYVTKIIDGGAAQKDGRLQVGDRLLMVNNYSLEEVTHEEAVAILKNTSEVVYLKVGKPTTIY

Binder	pKd [1]	pKd [2]	pKd [3]	pKd [4]	pKd [5]	pKd [6]	pKd [7]	pKd [8]	pKd [9]	pKd [10]	pKd [11]	pKd [12]	pKd [13]	pKd [14]	pKd [15]	pKd [16]	pKd [17]	pKd [18]	pKd [19]	pKd [20]	other results
B1	below the threshold	below the threshold	below the threshold	below the threshold	below the threshold	below the threshold	4.12	below the threshold	below the threshold	below the threshold	below the threshold	below the threshold	below the threshold	below the threshold	below the threshold	below the threshold	below the threshold	below the threshold	below the threshold	below the threshold	pKd [21]: below the threshold; pKd [22]: below the threshold; pKd [23]: below the threshold; pKd [24]: 3.94; pKd [25]: below the threshold; pKd [26]: below the threshold
B2	below the threshold	below the threshold	below the threshold	below the threshold	below the threshold	below the threshold	below the threshold	below the threshold	below the threshold	below the threshold	3.67	3.63	below the threshold	4.06	below the threshold	3.52	below the threshold	below the threshold	below the threshold	4.62	pKd [21]: below the threshold; pKd [22]: below the threshold; pKd [23]: 3.86; pKd [24]: 4.55; pKd [25]: below the threshold; pKd [26]: 3.79
